# Laboratory results: article PMC10567701 (Nature Communications, 2023)
# Where no end group is shown, it is not given here.
# B1: LptD (natural protein, Escherichia coli, UniProt P31554 25-784, looked up)
# chain: ADLASQCMLGVPSYDRPLVQGDTNDLPVTINADHAKGDYPDDAVFTGSVDIMQGNSRLQADEVQLHQKEAPGQPEPVRTVDALGNVHYDDNQVILKGPKGWANLNTKDTNVWEGDYQMVGRQGRGKADLMKQRGENRYTILDNGSFTSCLPGSDTWSVVGSEIIHDREEQVAEIWNARFKVGPVPIFYSPYLQLPVGDKRRSGFLIPNAKYTTTNYFEFYLPYYWNIAPNMDATITPHYMHRRGNIMWENEFRYLSQAGAGLMELDYLPSDKVYEDEHPNDDSSRRWLFYWNHSGVMDQVWRFNVDYTKVSDPSYFNDFDNKYGSSTDGYATQKFSVGYAVQNFNATVSTKQFQVFSEQNTSSYSAEPQLDVNYYQNDVGPFDTRIYGQAVHFVNTRDDMPEATRVHLEPTINLPLSNNWGSINTEAKLLATHYQQTNLDWYNSRNTTKLDESVNRVMPQFKVDGKMVFERDMEMLAPGYTQTLEPRAQYLYVPYRDQSDIYNYDSSLLQSDYSGLFRDRTYGGLDRIASANQVTTGVTSRIYDDAAVERFNISVGQIYYFTESRTGDDNITWENDDKTGSLVWAGDTYWRISERWGLRGGIQYDTRLDNVATSNSSIEYRRDEDRLVQLNYRYASPEYIQATLPKYYSTAEQYKNGISQVGAVASWPIADRWSIVGAYYYDTNANKQADSMLGVQYSSCCYAIRVGYERKLNGWDNDKQHAVYDNAIGFNIELRGLSSNYGLGTQEMLRSNILPYQNTL
# notes: LptD, E. coli, UniProt P31554; mature protein (theoretical mass 87,080 Da); Untagged; Cysteines at 31, 173, 724 and 725 (C1 to C4); the mature oxidized form LptD^Ox has the disulfides C1-C3 and C2-C4; samples from ΔlptM cells also hold partially oxidized forms; also called LptD^CCCC; wild-type LptD; source: E. coli BW25113 (wild-type or ΔlptM), overproduced from pLptDE^His or pLptDEM^His; …
# B2: LptE^His (natural protein)
# chain: not shown
# modifications: tri-acylated (mature and tri-acylated protein)
# notes: LptE, E. coli, UniProt P0ADC1; mature and tri-acylated lipoprotein (theoretical mass with the tag 21,348 Da); also called C-terminally poly-histidine tagged variant of LptE; source: E. coli BW25113 (wild-type or ΔlptM), overproduced from pLptDE^His or pLptDME^His; DDM-solubilized envelope fraction; not shown: poly-histidine, C-terminal, kept
# B3: LptE (natural protein)
# chain: not shown
# modifications: tri-acylated (mature and tri-acylated protein)
# notes: LptE, E. coli, UniProt P0ADC1; mature and tri-acylated lipoprotein (theoretical mass 20,248 Da); Untagged; source: E. coli BW25113 ΔlptM, overproduced from pLptDEM^His; DDM-solubilized envelope fraction
# B4: LptM^His (natural protein, Escherichia coli, UniProt P0ADN6 20-67, looked up)
# chain: CGLKGPLYFPPADKNAPPPTKPVETQTQSTVPDKNDRATGDGPSQVNY
# modifications: also: tri-acylated
# notes: LptM (formerly YifL), E. coli, UniProt P0ADN6; mature and tri-acylated lipoprotein (theoretical mass with the tag 6,988 Da); also called C-terminally poly-histidine tagged version of E. coli LptM; YifL; source: E. coli BW25113 ΔlptM, overproduced from pLptDEM^His or pLptM^His; DDM-solubilized envelope fraction; not shown: poly-histidine, C-terminal, kept
# Experiments:
# LptM^His = target: B4; assay: native MS; co-expressed and Ni-affinity co-purified complexes LptDE^His and LptDEM^His, ~10-20 μM in 200 mM ammonium acetate pH 7.4, 0.03% DDM; nano-electrospray, positive ion mode; conditions: both partners purified
# LptE [1] = target: B3; assay: as above; conditions: both partners purified
# LptD [2] = target: B1; assay: pull-down; Ni-affinity purification of LptE^His from the DDM-solubilized envelope fraction of wild-type (lptM^+) cells with pLptDE^His; Ni-NTA 2 h at 4 °C, 50 mM Tris-HCl pH 8, 150 mM NaCl, DDM; SDS-PAGE or BN-PAGE, Coomassie staining or Western blotting; conditions: partners not purified
# LptE [3] = target: B3; assay: HDX-MS; LPS translocon produced in the presence or absence of LptM, purified in detergent micelles; 20 μM protein diluted in deuterated buffer (20 mM MES pH 6.5, 200 mM NaCl), 20 °C, 0.5 to 30 min; pepsin digestion; conditions: both partners purified
# LptD [4] = target: B1; assay: as above; conditions: both partners purified
binder,measurement,setting,value
B1,stoichiometry N,LptM^His,1
same,stoichiometry N,LptE [1],1
B2,binding result,LptD [2],binds
B3,stoichiometry N,LptM^His,1
B4,binding result,LptE [3],binds
same,binding result,LptD [4],binds
